These results are taken from the Immune Epitope Database (IEDB).

Common to all, as to assay: IEDB peptide-MHC binding, purified MHC/competitive/radioactivity; ≥ and ≤ were set here for values at or beyond the usual limits of such assays
For experiment [1], the target named is HLA-A*02:03.
In experiment [2] the target is HLA-A*02:06.
Experiment [3] deals with HLA-A*02:02.
For experiment [4], the target named is HLA-A*02:01.
Experiment [5] deals with HLA-A*68:02.
[6] abbreviates: source organism: Hepacivirus hominis.
Setting [7] is: source organism: Vaccinia virus WR.

pIC50: −log10 of the molar value.

Usually pIC50 stands for the IC50 on a negative log10 scale, so that one unit is a factor of ten.

Regarding VLVGGVLAAL, the pIC50 in experiment [1] (setting [6]) is 8.30; in experiment [2] (setting [6]), 6.85; in experiment [3] (setting [6]) it was 7.96; in experiment [4] (setting [6]), 7.22; in experiment [5] (setting [6]), 6.82.

As for EAAAATCALV, the negative-log IC50 (pIC50) is 6.61 in experiment [1] (setting [7]); 7.22 in experiment [2] (setting [7]); 5.74 in experiment [3] (setting [7]); 6.50 in experiment [4] (setting [7]); 9.68 in experiment [5] (setting [7]).

Regarding SLVKPTVYV, the pIC50 in experiment [1] (source organism: SARS-CoV1) is 7.43; in experiment [2] (source organism: SARS-CoV1) it was 6.33; in experiment [3] (source organism: SARS-CoV1), 6.97; in experiment [4] (source organism: SARS-CoV1), 6.97; in experiment [5] (source organism: SARS-CoV1) it was 6.84.

Turning to IIYSKAGNIL, the pIC50 in experiment [1] (setting [7]) was 6.96; in experiment [2] (setting [7]) it was 6.47; in experiment [3] (setting [7]) it was 8.07; in experiment [4] (setting [7]), 6.27; in experiment [5] (setting [7]), 5.41.

Take FVATFRDML: the pIC50 in experiment [1] (setting [7]) is 6.69; in experiment [2] (setting [7]) it was 6.31; in experiment [3] (setting [7]), 5.63; in experiment [4] (setting [7]), 5.65; in experiment [5] (setting [7]), 7.92.

Consider KVTGSYNLV, for which the pIC50 is 7.37 in experiment [1] (setting [7]); 6.71 in experiment [2] (setting [7]); 7.18 in experiment [3] (setting [7]); 6.12 in experiment [4] (setting [7]); 6.27 in experiment [5] (setting [7]).

QIMECSRML: the pIC50 is 5.86 in experiment [1] (setting [7]); 6.02 in experiment [2] (setting [7]); 6.21 in experiment [3] (setting [7]); 6.99 in experiment [4] (setting [7]); 5.85 in experiment [5] (setting [7]).

As to RVLYDEFVTI, the pIC50 in experiment [1] (setting [7]) was 6.75; in experiment [2] (setting [7]), 8.18; in experiment [3] (setting [7]) it was 6.82; in experiment [4] (setting [7]), 7.55; in experiment [5] (setting [7]), 5.78.

Take TLVKSGLTEV: the pIC50 is 8.54 in experiment [1] (setting [7]); 7.35 in experiment [2] (setting [7]); 7.19 in experiment [3] (setting [7]); 8.04 in experiment [4] (setting [7]); 5.64 in experiment [5] (setting [7]).

ATLNTLITLI: the pIC50 in experiment [1] (setting [7]) is 7.55; in experiment [2] (setting [7]), 6.70; in experiment [3] (setting [7]), 7.49; in experiment [4] (setting [7]) it was 6.27; in experiment [5] (setting [7]), 5.98.

On to FLLPSLATV, for which the pIC50 in experiment [1] (source organism: SARS-CoV1) is 9.70; in experiment [2] (source organism: SARS-CoV1), 9.39; in experiment [3] (source organism: SARS-CoV1), 9.89; in experiment [4] (source organism: SARS-CoV1), 9.47; in experiment [5] (source organism: SARS-CoV1), 7.80.

As to FITVLTSVDI, the negative logarithm of the IC50 (pIC50) in experiment [1] (setting [7]) was 6.63; in experiment [2] (setting [7]) it was 5.90; in experiment [3] (setting [7]), 5.85; in experiment [4] (setting [7]) it was 6.22; in experiment [5] (setting [7]) it was 5.90.

For the sequence AAITLVVISV, the pIC50 in experiment [1] (setting [7]) was 6.61; in experiment [2] (setting [7]), 7.57; in experiment [3] (setting [7]), 6.30; in experiment [4] (setting [7]) it was 6.43; in experiment [5] (setting [7]) it was 6.15.

For ILEYLYIMRV, the negative-log IC50 (pIC50) in experiment [1] (setting [7]) was 7.08; in experiment [2] (setting [7]) it was 6.87; in experiment [3] (setting [7]) it was 7.13; in experiment [4] (setting [7]) it was 7.52; in experiment [5] (setting [7]), 5.87.

As to FVKENERVNV, the pIC50 in experiment [1] (setting [7]) was 7.92; in experiment [2] (setting [7]) it was 6.17; in experiment [3] (setting [7]) it was 6.73; in experiment [4] (setting [7]) it was 6.57; in experiment [5] (setting [7]) it was 5.89.

As for STTENAAYQV, the pIC50 in experiment [1] (setting [7]) was 5.33; in experiment [2] (setting [7]) it was 7.00; in experiment [3] (setting [7]) it was 6.03; in experiment [4] (setting [7]), 5.93; in experiment [5] (setting [7]) it was 7.82.

For the sequence TISGNIYSAL, the pIC50 in experiment [1] (setting [7]) is 7.05; in experiment [2] (setting [7]), 5.57; in experiment [3] (setting [7]), 8.03; in experiment [4] (setting [7]), 5.95; in experiment [5] (setting [7]), 7.72.

As to FTLLFQLCT, the pIC50 is 6.13 in experiment [1] (source organism: SARS-CoV1); 6.85 in experiment [2] (source organism: SARS-CoV1); 5.96 in experiment [3] (source organism: SARS-CoV1); 6.88 in experiment [4] (source organism: SARS-CoV1); 5.56 in experiment [5] (source organism: SARS-CoV1).

Regarding IISYIILFI, the pIC50 was 7.23 in experiment [1] (setting [7]); 7.57 in experiment [2] (setting [7]); 8.55 in experiment [3] (setting [7]); 7.92 in experiment [4] (setting [7]); 8.24 in experiment [5] (setting [7]).

On to LIDFYLCFL, for which the negative-log IC50 (pIC50) is 7.21 in experiment [1] (source organism: SARS-CoV1); 7.96 in experiment [2] (source organism: SARS-CoV1); 8.08 in experiment [3] (source organism: SARS-CoV1); 9.05 in experiment [4] (source organism: SARS-CoV1); 7.03 in experiment [5] (source organism: SARS-CoV1).
